Like-named read-outs stand apart in the source and are kept apart here.
B1: L1-18: library L1 reverse repressor hit (SEQ ID NO: 1206-1213) (protein)
chain: MGSRLDKSKVINSALELLNEVGIEGLTTRKLAQKLGVEQPTLYWHVKNKRALLDALAIEMLDRHLTHFCPLEGESWQDFLRNNAKSMRCALLSHRDGAKVWLGTGFTEKQYETKENRLAFLCQQGFSLENALYAIRAVSRFTLGCVLQDQEPQVAKEERETPTTDSMPPLLRQAVELFDHQGAEPAFLFGLELIICGLEKQLKCESES
modifications: rSuR L1-18
B2: L1-21: library L1 reverse repressor hit (SEQ ID NO: 1206-1213) (protein)
chain: MGSRLDKSKVINSALELLNEVGIEGLTTRKLAQKLGVEQPTLYWHVKNKRALLDALAIEMLDRHATHFCPLEGESWQDFLRNNAKSFRCALLSHRDGAKVCLGTAGTEKQYETLENCLAFLCQQGFSLENALYARSAVVCFTLGCVLFDQEMQVAKEERETPTTDSMPPLLRQAAELLDHQGAEPAFLFGLELIICGLEKQLKCESGS
modifications: rSuR L1-21
B3: L1-22: library L1 hit, sulfonylurea-responsive TetR(B) variant, SEQ ID NO: 7 (protein)
chain: MGSRLDKSKVINSALELLNEVGIEGLTTRKLAQKLGVEQPTLYWHVKNKRALLDALAIEMMDRHHTHFCPLEGESWQDFLRNTAKSYRCALLSHRDGAKVCLGTAITEKQYETKENNLAFLCQQGFSLENALYARQAVRVFTLGCVLFDQEMQVAKEERETPTTDSMPPLLRQASELLDHQGAEPAFLFGLELIICGLEKQLKSESGS
modifications: Sulfornylurea responsive repressor L1-22
B4: L1-39: library L1 reverse repressor hit (SEQ ID NO: 1206-1213) (protein)
chain: MGSRLDKSKVINSALELLNEVGIEGLTTRKLAQKLGVEQPTLYWHVKNKRALLDALAIEMMDRHQTHFCPLEGESWQDFLRNTAKSYRCALLSHRDGAKVILGTRWTEKQYETRENVLAFLCQQGFSLENALYAWAAVGPFTLGCVLRDQERQVAKEERETPTTDSMPPLLRQALELMDHQGAEPAFLFGLELIICGLEKQLKCESGS
modifications: rSuR L1-39
B5: L1-41: library L1 reverse repressor hit (SEQ ID NO: 1206-1213) (protein)
chain: MGSRLDKSKVINSALELLNEVGIEGLTTRKLAQKLGVEQPTLYWHVKNKRALLDALAIEMLDRNQTHFCPLEGESWQDFLRNNAKSWRCALLSHRDGAKVMLGTRNTEKQYETAENGLAFLCQQGFSLENALYACRAVWTFTLGCVLDDQETQVAKEERETPTSDSMPPLLRQAMELKDHQGAEPAFLFGLELIICGLEKQLKCESGS
modifications: rSuR L1-41
B6: L1-36: library L1 reverse repressor hit (SEQ ID NO: 1206-1213) (protein)
chain: MGSRLDKSKVINSALELLNEVGIEGLTTRKLAQKLGVEQPTLYWHVKNKRALLDALAIEMADRHHTHFCPLEGESWQDFLRNAAKSMRCALLSHRDGAKVRLGTAWTEKQYETHENVLAFLCQQGFSLENALYALKAVSGFTLGCVLKDQEMQVAKEERETPTTDSMPPLLRQATELVDHQGAEPAFLFGLELIICGLEKQLKCESGS
modifications: rSuR L1-36
B7: L1-7: library L1 hit, sulfonylurea-responsive TetR(B) variant, SEQ ID NO: 4 (protein)
chain: MGSRLDKSKVINSALELLNEVGIEGLTTRKLAQKLGVEQPTLYWHVKNKRALLDALAIEMLDRHNTHFCPLEGESWQDFLRNNAKSWRCALLSHRDGAKVVLGTAITEKQYETHENPLAFLCQQGFSLENALYAIAAVRRFTLGCVLVDQERQVAKEERETPTTDSMPPLLRQASELQDHQGAEPAFLFGLELIICGLEKQLKCERGS
modifications: Sulfonylurea responsive repressor L1-07
B8: L1-44: library L1 hit, sulfonylurea-responsive TetR(B) variant, SEQ ID NO: 13 (protein)
chain: MGSRLDKSKVINSALELLNEVGIEGLTTRKLAQKLGVEQPTLYWHVKNKRALLDALAIEMLDRHATHFCPLEGESWQDFLRNNAKSYRCALLSHRDGAKVYLGTAVTEKQYETAENQLAFLCQQGFSLENALYAVKAVAGFTLGCVLWDQESQVAKEERETPTTASMPPLLRQAVELADHQGAEPAFLFGLELIICGLEKQLKCESGS
modifications: Sulfonylurea responsive repressor L1-44

Tested on: tetA promoter (PtetA)-lacZ reporter in E. coli KM3
Assay type: cell-based
Conditions: for relative β-galactosidase activity, inducer Blank / relative β-galactosidase activity, inducer None / relative β-galactosidase activity, No inducer: no inducer; for Inducer preference: Table 8, inducers given as numbers without key
[1] = Table 6, reverse repressor hits, anhydrotetracycline
[2] = Table 6, reverse repressor hits, chlorimuron, same plate assay format as Table 4
[3] = Table 6, reverse repressor hits, chlorsulfuron, same plate assay format as Table 4
[4] = Table 6, reverse repressor hits, ethametsulfuron, same plate assay format as Table 4
[5] = Table 6, reverse repressor hits, metsulfuron, same plate assay format as Table 4
[6] = Table 6, reverse repressor hits, nicosulfuron, same plate assay format as Table 4
[7] = Table 6, reverse repressor hits
[8] = Table 6, reverse repressor hits, rimsulfuron, same plate assay format as Table 4
[9] = Table 6, reverse repressor hits, sulfometuron, same plate assay format as Table 4
[10] = Table 6, reverse repressor hits, thifensulfuron, same plate assay format as Table 4
[11] = Table 6, reverse repressor hits, tribenuron, same plate assay format as Table 4
[12] = Table 4, anhydrotetracycline 0.4 μM, 48 hrs at 30° C.
[13] = Table 4, chlorimuron 20 μg/ml (20 ppm), 48 hrs at 30° C.
[14] = Table 4, chlorsulfuron 20 μg/ml (20 ppm), 48 hrs at 30° C.
[15] = Table 4, ethametsulfuron 20 μg/ml (20 ppm), 48 hrs at 30° C.
[16] = Table 4, metsulfuron 20 μg/ml (20 ppm), 48 hrs at 30° C.
[17] = Table 4, nicosulfuron 20 μg/ml (20 ppm), 48 hrs at 30° C.
[18] = Table 4, rimsulfuron 20 μg/ml (20 ppm), 48 hrs at 30° C.
[19] = Table 4, thifensulfuron 20 μg/ml (20 ppm), 48 hrs at 30° C.
[20] = Table 4, tribenuron 20 μg/ml (20 ppm), 48 hrs at 30° C.
[21] = Table 10, chlorsulfuron 2 ppm, 48 hours at 30° C.
[22] = Table 10, ethametsulfuron 2 ppm, 48 hours at 30° C.
[23] = Table 10, metsulfuron 2 ppm, 48 hours at 30° C.
[24] = Table 10, sulfometuron 2 ppm, 48 hours at 30° C.
[25] = Table 4, sulfometuron 20 μg/ml (20 ppm), 48 hrs at 30° C.

Molecule	relative β-galactosidase activity, inducer atc [1]	relative β-galactosidase activity, inducer Ci [2]	relative β-galactosidase activity, inducer Cs [3]	relative β-galactosidase activity, inducer Es [4]	relative β-galactosidase activity, inducer Ms [5]	relative β-galactosidase activity, inducer Ns [6]	relative β-galactosidase activity, inducer Blank [7]	relative β-galactosidase activity, inducer Rs [8]	relative β-galactosidase activity, inducer Sm [9]	relative β-galactosidase activity, inducer Ts [10]	relative β-galactosidase activity, inducer Tb [11]	relative β-galactosidase activity, inducer atc [12]	relative β-galactosidase activity, inducer Ci [13]	relative β-galactosidase activity, inducer Ns [17]	relative β-galactosidase activity, inducer None (Table 4, 48 hrs at 30° C.)	relative β-galactosidase activity, inducer Rs [18]	relative β-galactosidase activity, inducer Ts [19]	relative β-galactosidase activity, inducer Tb [20]	also measured
B1	2.35	0.36	1.22	0.37	0.79	1.44	1.34	2.55	0.94	1.13	1.65								
B2	2.81	0.07	0.89	0.61	0.89	2.74	2.88	2.31	2.39	0.79	2.13								
B3												0.0	10.4	0.2	0.1	0.1	0.0	0.3	relative β-galactosidase activity, inducer Cs [14]: 0.2; relative β-galactosidase activity, inducer Es [15]: 0.3; relative β-galactosidase activity, inducer Ms [16]: 0.1; Inducer preference: 3; relative β-galactosidase activity, inducer Cs [21]: 0.2; relative β-galactosidase activity, inducer Es [22]: 0.2; relative β-galactosidase activity, inducer Ms [23]: 0.2; relative β-galactosidase activity, No inducer (Table 10, 48 hours at 30° C.): 0.2; relative β-galactosidase activity, inducer Sm [24]: 1.8
B4	4.92	0.49	0.89	0.60	0.75	3.03	3.65	4.72	0.91	1.42	0.97								
B5	4.21	0.39	0.61	0.18	0.56	2.75	4.05	4.05	0.67	1.46	1.41								
B6	1.70	0.21	0.24	0.20	0.38	1.81	1.52	1.84	0.50	0.48	0.57								
B7												0.0	16.5	0.1	0.0	0.2	0.1	0.2	relative β-galactosidase activity, inducer Cs [14]: 3.1; relative β-galactosidase activity, inducer Es [15]: 0.1; relative β-galactosidase activity, inducer Ms [16]: 0.2; relative β-galactosidase activity, inducer Sm [25]: 6.4
B8												0.2	6.7	0.4	0.2	0.3	1.9	0.4	relative β-galactosidase activity, inducer Sm [25]: 0.4; Inducer preference: 9 (weak); relative β-galactosidase activity, inducer Cs [21]: 1.9; relative β-galactosidase activity, inducer Es [22]: 1.0; relative β-galactosidase activity, inducer Ms [23]: 0.5; relative β-galactosidase activity, No inducer (Table 10, 48 hours at 30° C.): 0.6; relative β-galactosidase activity, inducer Sm [24]: 0.6

Source: patent publication US8580556B2, “Sulfonylurea-responsive repressor proteins” (E. I. du Pont de Nemours and Company, priority 2008, dated 2013)
